# Assays:
# [1] = tested on: BLECs; assay: Aβ1–40Cy5 peptide / FITC-inulin transport across untreated BLECs (Papp, transcytosis quotient); type: in vitro ADME, human; settings: 30 min, 37 °C, mean ± SEM; for apparent permeability coefficient (Papp), efflux transport, control: untreated human BLECs on Transwell insert, basolateral-to-apical, 10 nM Aβ1–40Cy5 with 1 µM FITC-inulin in RH-HSA 0.1% pH 7.4, slight agitation, fluorescence, at least three independent experiments in triplicate
# Description: As TNF-α and IL-1β modulated the protein expression levels of LRP1, BCRP and PICALM (Figure 4), we investigated the effect of these cytokines on the transport of Aβ peptide across the BBB. After 24 h of treatment with proinflammatory cytokines, the apical-to-basolateral (influx) and basolateral-to-apical (efflux) Aβ1–40Cy5 peptide transports across the BLECs were assessed in the presence of FITC-inulin. The Aβ1–40 peptide was used in all experiments, as it is the most abundant amyloid peptide found on cerebral blood vessels. FITC-inulin was used to determine the nonspecific transcytosis quotient (Figure 5A). Indeed, unlike Aβ peptide, FITC-inulin is not actively cleared at the BBB and acts as a reference marker of paracellular permeability, thus as previously reported.
# (§1) As described previously, the human in vitro blood-brain barrier (BBB) model based on the acquisition of the human brain-like endothelial cell (BLEC) phenotype was used for this study. This BBB model corresponds to a coculture of primary human endothelial cells (ECs) derived from CD34^+ cord blood hematopoietic stem cells and bovine brain pericytes, isolated as described by Vandenhaute and colleagues. Informed consent was obtained from all infants’ parents for the umbilical cord blood collection and use. Procedures for isolation of cells from umbilical cord were approved by the French Ministry of Higher Education and Research (CODECOH DC2011-1321, approved 31 January 2013) and by the local investigational review board (Béthune Maternity Hospital, Beuvry, France). Briefly, 8 × 10^4 ECs at passage 6 were seeded onto Matrigel-coated (BD Biosciences, San Jose, CA, USA) insert (pore size 0.4 μm, Costar Transwell inserts, Corning Inc., Corning, New York, NY, USA. Endothelial cells were cocultured with bovine brain pericytes at passage 10 in a 12-well plate gelatin-coated with ECM-5. Every two days, ECM-5 was changed until experiment. However, a minimum of 5 days of culture were required for the ECs to develop the BLEC phenotype and a maximum of 21 days of BLEC phenotype stability has been determined. Once BLEC phenotype was acquired, these cells delimited two compartments, one mimicking the blood side (corresponding to the apical compartment) and the other the brain side (corresponding to the basolateral side). […]
# After proinflammatory cytokine treatments, the influx (apical-to-basolateral) and the efflux (basolateral-to-apical) transport of Aβ1–40 peptides across BLECs were investigated as previously described. […] The BBB integrity was determined by measuring the endothelial permeability of a radioactive integrity marker, ^14C-sucrose, using the same method of calculation as described in Section 4.4. […]
# [2] = tested on: BLEC monolayer; assay: Endothelial permeability coefficient of lucifer yellow across untreated BLEC monolayer; type: in vitro ADME, human; settings: mean ± SEM
# Text: as §1, with “Procedures for isolation of cells from umbilical cord were approved by the French Ministry of Higher Education and Research (CODECOH DC2011-1321, approved 31 January 2013) and by the local investigational review board (Béthune Maternity Hospital, Beuvry, France).” left out
# The BLEC monolayer integrity was evaluated after each treatment using the method described by Dehouck and colleagues. […]
# [3] = tested on: BLECs; settings: MTT assay; 10% (v/v) DMSO, 24 h; positive control of cell toxicity; mean of at least three independent experiments in triplicate
# Description: An MTT assay was performed as a preliminary test to determine their effect on BLEC viability and to validate the chosen concentrations. Dimethyl sulfoxide (DMSO) at 10% (v/v) was used as a positive control of cell toxicity.
# After 6 days of coculture, TNF-α or IL-1β were added to the basolateral compartment (brain side) at 10 ng·mL^−1 for 24 h, at 37 °C and 5% CO2, to mimic CNS inflammation condition. Each condition was studied in triplicate.
# The standard MTT [3-(4,5-dimethylthiazol-2-yl)-2,5-diphenyltetrazolium bromide] assay (AR1156, Boster Biological Technology, Pleasanton, CA, USA) was performed to determine BLEC viability. Briefly, after coculture treatments, culture medium was removed and replaced with worm Ringer-Hepes (RH; 150 mM NaCl, 5.2 mM KCl, 2.2 mM CaCl2, 0.2 mM MgCl2–6H2O, 6 mM NaHCO3, 5 mM HEPES, 2.8 mM glucose; pH: 7.4) in basolateral compartment and with MTT solution (0.5 mg·mL^−1) in RH at in the opposite compartment for 3 h at 37 °C and 5% CO2. […] Aliquot was sampled in 96-well plate and the optical density (OD) was measured with a microplate reader (Synergy H1, BioTek. Colmar, France) at the wavelength of 570 and 630 nm. The percentage of relative cell viability compared to the control condition was subsequently determined using the following formula: % relative cell viability = ((OD570 − OD630) condition)/((OD570 – OD630)control) × 100.
compound,measurement,setting,value
human amyloid-β peptide (1–40)-Cy5 [Aβ1–40Cy5],"transcytosis quotient of Aβ1–40Cy5, efflux direction, control","[1]; efflux Aβ1–40Cy5 Papp / efflux FITC-inulin Papp, untreated BLECs",3.22 ± 0.13
same,"transcytosis quotient of Aβ1–40Cy5, influx direction, control","[1]; influx Aβ1–40Cy5 Papp / influx FITC-inulin Papp, untreated BLECs",3.10 ± 0.25
same,"apparent permeability coefficient (Papp), efflux transport, control",[1],4.47 ± 0.16 × 10^−6 cm·min^−1
FITC-inulin,"apparent permeability coefficient (Papp), efflux transport, control",[1],1.41 ± 0.03 × 10^−6 cm·min^−1
Lucifer Yellow CH dilithium salt [LY],"transcellular PeLY, control BLECs",[2]; PeLY at 37 °C minus PeLY at 4 °C,0.36 ± 0.02 × 10^−3 cm·min^−1
same,"paracellular PeLY, control BLECs","[2]; as total PeLY but at 4 °C (transcellular pathway inhibited), 50 µM LY in RH buffer, fluorescence",0.18 ± 0.01 × 10^−3 cm·min^−1
"C[S+](C)[O-] [DMSO, Dimethyl sulfoxide, reference compound]",decrease of BLEC viability compared to control,[3],26.5%
